# T1: extracellular domain of mouse AXL (mAXL-ECD; R&D) (mouse, UniProt Q00993 19-445)
# T1 construct: extracellular domain; Bought protein
# T1 sequence (looked up): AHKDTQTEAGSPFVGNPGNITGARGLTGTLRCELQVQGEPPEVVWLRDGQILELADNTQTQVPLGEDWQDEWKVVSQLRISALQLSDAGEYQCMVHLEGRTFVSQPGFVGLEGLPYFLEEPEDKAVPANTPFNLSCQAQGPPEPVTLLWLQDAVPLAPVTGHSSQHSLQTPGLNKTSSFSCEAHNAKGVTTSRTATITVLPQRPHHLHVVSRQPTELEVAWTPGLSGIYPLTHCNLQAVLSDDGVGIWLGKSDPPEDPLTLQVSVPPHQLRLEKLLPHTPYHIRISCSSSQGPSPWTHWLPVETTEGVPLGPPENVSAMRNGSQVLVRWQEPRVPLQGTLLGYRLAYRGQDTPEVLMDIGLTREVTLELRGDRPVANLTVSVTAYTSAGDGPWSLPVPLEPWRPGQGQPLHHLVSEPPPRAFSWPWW
# Target: T1, extracellular domain of mouse AXL …
# Test: ELISA, antibody at 3 µg/mL on coated mAXL-ECD
# Experimental: After the extracellular domain of mouse AXL (hereinafter referred to as mAXL-ECD; R&D) was diluted with coating buffer (100 mM sodium bicarbonate buffer, pH 9.6) to 2 μg/mL, 100 μL was dispensed into a 96-well plate (Nunc-Immuno™ 96 MicroWell™ MaxiSorp™ plates; Nalge Nunc International). After the plate was placed in a refrigerator overnight, the antibody solution in the plate was removed, 200 μL/well of diluent buffer (BlockingOne; Nacalai Tesque) was dispensed, and then blocked for two hours at room temperature. After the removal of the diluent buffer, the anti-AXL antibody prepared above diluted to 3 μg/mL with diluent buffer was dispensed at 100 μL/well, and allowed to stand for 1.5 hours at room temperature. After the removal of the antibody solution, the wells were washed three times with tPBS(−). […] After the removal of the antibody solution, the wells were washed three times with tPBS(−). 100 μL/well of alkaline phosphatase chromogenic substrate solution (BluePhos Microwell Phosphatase Substrate System, Kirkegaad & Perry Laboratories) was dispensed, followed by color development at room temperature. The absorbance at 650 nm was then measured with a microplate reader (Emax, Molecular Devices).
binder,measurement,value
"anti-AXL monoclonal antibody Ax225 (hybridoma AXL No. 225 #070402, Accession No. FERM BP-10854) (antibody, V domains shown, Mouse antibody from a hybridoma; Variable genes were amplified with constant region primers MHCg1 (H chain) and MLCk (L chain); also called AXL225 mouse antibody) VH: QVQLKQSGPGLVAPSQSLSITCTVSGLSLTSFGVDWVRQSPGKGLEWLGVIWGGGSTNYNSALKSRLSISKDNSKSQVFLKMNSLQTDDTAMYYCAGEGSKYGAWFAYWGQGTLVTVSS VL: DVLMTQTPLSLPVSLGDQASISCRSSQNIVHTNGNTYLEWYLQKPGQSPELLIYKVSNRFSGVPDRFSGSGSGTDFTLKISRVEAEDLGVYYCFQGSHIPFTFGTGTKLEIK",binding result,binds
